Positions count from the first letter of the chain named. Where no end group is shown, it is not given here. GalNAc = O-linked GalNAc (Tn antigen, GalNAc-alpha1-O-Ser/Thr)
B1: 10H4 antibody (antibody, V domains shown)
VH: QSLEESGGRLVTPGTPLTLTCTASGFTINTYHMGWFRQAPGKGLQYIGIVSHDVGTYYATWAKGRFTISKTSSTTVDLRMPSPTTEDTATYICARGPGYWTFNLWGQGTLVTVSS
VL: AQVLTQTPASVSAAVGGTVTINCQASQSVYNNNQLSWYQQKPGQPLKQLIYKASTLASGVPSRFKGSGSGSQFTLTISDLECDDAATYFCAGGYKGDIHPFGGGTEVVVK
notes: Rabbit monoclonal antibody
B2: 18G9 antibody (antibody, V domains shown)
VH: DVQLVESGGGLVQPGGSRKLSCAASGFTFSSFGMHWVRQAPEKGLEWVAYISSGSSTIYYADTVKGRFTISRDNPKNTLFLQMTSLRSEDTAMYYCARGSYRAMDYWGQGTSVTVSS
VL: QIVLTQSPALMSASPGEKVTMTCSASSSVNYMFWYQQKPRSSPKPWIYLTSNLASGVPARFSGSGSGTSYSLTISSMEAEDAATYYCQLWSSNPFTFGSGTKLEIK
notes: Murine monoclonal antibody
B3: 2B2 antibody (antibody, V domains shown)
VH: EVQLVESGGGLVKPGGSLKLSCAASGFTFSSYAMSWVRQSPERRLEWVAEISSGGSYTYYPDTVTGRFTISRDNAKNTLYLEMSSLRSEDTAMYYCARTVGEDWYFDVWGAGTTVTVSS
VL: DIQMTQTTSSLSASLGDRVTISCRASQDISHYLNWYQQKPDGAVKLLIYSTSRLHSGVPSRFSGSGSGTDYSLTISNLEQEDIATYFCQQGYTLPFTFGSGTKLEIK
notes: Murine monoclonal antibody
B4: humanized 4C8 candidate 2 (4C8-HV1-46-A/LV7-43-A) (antibody, V domains shown)
VH: QVQLVQSGAEVKKPGASVKVSCKASGYTFTSYWMHWVRQAPGQGLEWIGNIYPRSGTTNYDGYFKSRATLTVDTSTSTAYMELSSLRSEDTAVYFCTRSGYDYPFVYWGQGTLVTVSS
VL: QAVVTQEPSLTVSPGGTVTLTCRTSTGAVSIRNYANWVQEKPGQAFRGLIGGTNNRAPWTPARFSGSLLGDKAALTLSGVQPEDEAEYFCALLYSNYWVFGGGTKLTVL
notes: also called Molecule Number 2
B5: humanized 4C8 candidate 5 (4C8-HV1-18-A/LV7-46-A) (antibody, V domains shown)
VH: B4 VH with S84R, E89D
VL: B4 VL with V80A
notes: also called Molecule Number 5
B6: humanized 4C8 candidate 7 (4C8-HV1-69-A/LV7-46-A) (antibody, V domains shown)
VH: B4 VH with A16S
VL: B4 VL with V80A
notes: also called Molecule Number 7
B7: humanized 4C8 candidate 3 (4C8-HV1-69-A/LV7-43-A) (antibody, V domains shown)
VH: B4 VH with A16S
VL: B4 VL
notes: also called Molecule Number 3
B8: humanized 4C8 candidate 6 (4C8-HV1-46-A/LV7-46-A) (antibody, V domains shown)
VH: B4 VH
VL: B4 VL with V80A
notes: also called Molecule Number 6
B9: humanized 4C8 candidate 1 (4C8-HV1-18-A/LV7-43-A) (antibody, V domains shown)
VH: B4 VH with S84R, E89D
VL: B4 VL
notes: also called Molecule Number 1
B10: 1D12 antibody (antibody, V domains shown)
VH: DVQLVESGGGLVQPGGSRKLSCAASGFTFSSFGIHWVRQAPEKGLEWVAYISSGSSTIYYADTVKGRFTISRDNPKNTLFLQMTSLRSEDTAMYYCARGSKVVAKSRGYWYFDVWGAGTTVTVSS
VL: DVVVTQTPLFLPVSFGDQVSISCRSSQSLANNYGITYLSWYLHRPGQSPQLLIYGISNRFSGVPDRFSGSGSGTDFTLKISTIKPEDLGMYYCLQGTHQPWTFGGGTKLEIK
notes: Murine monoclonal antibody
B11: 4C8 monoclonal antibody (antibody, V domains shown)
VH: QVQLQQPGSELVRPGASVKLSCKASGYTFTSYWMHWVKQRPGQGLEWIGNIYPRSGTTNYDGYFKSKATLTVDTSSSTAYMQLSSLTSEDSAVYFCTRSGYDYPFVYWGQGTLVTVSA
VL: QAVVTQESALTTSPGETVTLTCRTSTGAVSIRNYANWVQEKPDHLFTGLIGGTNNRAPGVPARFSGSLIGDKAALTITGAQPEDEAIYFCALLYSNYWVFGGGTKLTVL
notes: Murine hybridoma antibody; also called 4C8 mAb; mAb 4C8

Tests used:
[1] = molecular target: T1, CD44v6 glycopeptide … with O-linked GalNAc on threonine 5 and serine 12 (human); experiment: hybridoma screening (ELISA, flow cytometry, immunofluorescence)
T1 construct: Synthetic glycopeptide; also called CD44v6-Tn(S + T); Tn-glycosylated CD44v6 glycopeptide
T1 peptide: GYRQT(GalNAc)PKEDSHS(GalNAc)TTGTAAA

[2] = molecular target: T1, CD44v6 glycopeptide … with O-linked …; experiment: BLI (Octet); biotinylated peptide on biosensor, antibody in solution
Method: (§1) The affinities of humanized 4C8 candidates 1-8 against the CD44v6 glycopeptide and a MUC1 glycopeptide were measured using by bio-layer interferometry (BLI) using an Octet system. The peptides were immobilized onto the biosensor by biotin (ligand) and antibodies were in solution (analyte). Candidate 8(4C8-HV7-4-1-A/LV7-46-A) was most similar to the original […] antibody and was selected for further testing. Table 13 summarizes the dissociation constants (KD) for the noted humanized 4C8 candidates against the glycopeptides.

[3] = molecular target: Tn-glycosylated CD44 (human) (UniProt P16070); experiment: ELISA, antibody fixed at 1 ug/mL, coated antigen CD44_10-G(S1T1)-BSA titrated
[4] = molecular target: T2, MUC1 glycopeptide (MUC1-Tn) (UniProt P15941 138-197, limits assumed, Tn (GalNAc) glycosylated; sites not stated in the examples); experiment: BLI (Octet); biotinylated peptide on biosensor, antibody in solution
Method: as §1

[5] = molecular target: T1, CD44v6 glycopeptide … with O-linked …; experiment: BLI (Octet); biotinylated peptide on biosensor, antibody in solution; Table 13 Octet run with the humanized candidates; 4C8-cAb (mouse) as reference
Method: as §1

[6] = molecular target: T1, CD44v6 glycopeptide … with O-linked …; experiment: BLI (Octet), apparent affinity with avidity factored in
[7] = molecular target: T2, MUC1 glycopeptide (MUC1-Tn); experiment: Biacore, column 'Affinity (Biacore)', row MUC1-Tn
[8] = molecular target: T1, CD44v6 glycopeptide … with O-linked …; experiment: SPR (Biacore); Biacore, not Octet
[9] = molecular target: T3, CD44v6 peptide glycoform with Tn on serine only (human); experiment: BLI (Octet)
T3 construct: also called CD44v6-Tn(S)
T3 peptide: GYRQTPKEDSHS(GalNAc)TTGTAAA

T2 sequence (P15941 138-197 limits assumed): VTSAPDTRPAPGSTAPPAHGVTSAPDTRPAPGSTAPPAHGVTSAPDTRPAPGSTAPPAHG

Row | Binder | binding result [1] | Kd [2] [nM] | also measured
1 | B1 | binds |  | 
2 | B2 | binds |  | 
3 | B3 | binds |  | 
4 | B4 |  | 194 | 
5 | B5 |  | 177 | 
6 | B6 |  | 183 | EC50 (read off the curve) [3]: 20 ng/mL; binding result [4]: no binding (tested: affinity was below the detection limits)
7 | B7 |  | 161 | 
8 | B8 |  | 169 | binding result [4]: no binding (tested: affinity was below the detection limits)
9 | B9 |  | 191 | EC50 (read off the curve) [3]: 20 ng/mL
10 | B10 | binds |  | 
11 | B11 |  |  | Kd [5]: 163 nM; EC50 (read off the curve) [3]: 20 ng/mL; Kd [6]: 7.9 nM; Kd [7]: > 400 nM; Kd [8]: 128 nM; Kd [9]: 6.4 nM
